± gives the uncertainty stated by the source.

Among the data in the Human Domainome abundance scans (Beltran et al. 2025) are abundance fitness values, retold here.

B1: Zinc finger protein ZIC 2, residues 250 to 295; numbered along this chain, O95409 (parent)
chain: QCIKQELICKWIDPEQLSNPKKSCNKTFSTMHELVTHVSVEHVGGP

This series covers variants of B1. Nature of the series: abundance fitness (aPCA) (normalised: wild type 0, dead -1); higher = more abundant; growth selection in yeast, the domain comes from the species named. As to conditions: Homo sapiens.
QCIKQELICKWIDPENLSNPKKSCNKTFSTMHELVTHVSVEHVGGP [Q16N]: the abundance fitness was -0.414 ± 0.14.

With QCIKQELICKWIDPEWLSNPKKSCNKTFSTMHELVTHVSVEHVGGP [Q16W], the abundance fitness was -0.069 ± 0.097.

With QCIKQELICKWIDPEHLSNPKKSCNKTFSTMHELVTHVSVEHVGGP [Q16H], the abundance fitness was -0.077 ± 0.13.

As for QCIKQELICKWIDPEFLSNPKKSCNKTFSTMHELVTHVSVEHVGGP [Q16F], the abundance fitness was -0.376 ± 0.12.

For QCIKQELICKWIDPEKLSNPKKSCNKTFSTMHELVTHVSVEHVGGP [Q16K], the abundance fitness is -0.335 ± 0.11.

With QCIKQELICKWIDPEPLSNPKKSCNKTFSTMHELVTHVSVEHVGGP [Q16P], the abundance fitness is -0.285 ± 0.11.

As for QCIKQELICKWIDPEMLSNPKKSCNKTFSTMHELVTHVSVEHVGGP [Q16M], the abundance fitness is -0.25 ± 0.1.

With QCIKQELICKWIDPESLSNPKKSCNKTFSTMHELVTHVSVEHVGGP [Q16S], the abundance fitness was determined as 0.073 ± 0.09.

In the case of QCIKQELICKWIDPEYLSNPKKSCNKTFSTMHELVTHVSVEHVGGP [Q16Y], the abundance fitness is -0.211 ± 0.12.

For QCIKQELICKWIDPEDLSNPKKSCNKTFSTMHELVTHVSVEHVGGP [Q16D], the abundance fitness was -0.074 ± 0.11.

On to QCIKQELICKWIDPEGLSNPKKSCNKTFSTMHELVTHVSVEHVGGP [Q16G], for which the abundance fitness is -0.251 ± 0.086.

On to QCIKQELICKWIDPECLSNPKKSCNKTFSTMHELVTHVSVEHVGGP [Q16C], for which the abundance fitness was -0.014 ± 0.11.

For the variant QCIKQELICKWIDPELLSNPKKSCNKTFSTMHELVTHVSVEHVGGP [Q16L], the abundance fitness is 0.068 ± 0.087.

On to QCIKQELICKWIDPETLSNPKKSCNKTFSTMHELVTHVSVEHVGGP [Q16T], for which the abundance fitness is -0.051 ± 0.1.

In the case of QCIKQELICKWIDPEELSNPKKSCNKTFSTMHELVTHVSVEHVGGP [Q16E], the abundance fitness was -0.397 ± 0.1.

Take QCIKQELICKWIDPEILSNPKKSCNKTFSTMHELVTHVSVEHVGGP [Q16I]: the abundance fitness is -0.11 ± 0.1.

In the case of QCIKQELICKWIDPERLSNPKKSCNKTFSTMHELVTHVSVEHVGGP [Q16R], the abundance fitness was -0.432 ± 0.088.

Take QCIKQELICKWIDPEALSNPKKSCNKTFSTMHELVTHVSVEHVGGP [Q16A]: the abundance fitness is -0.144 ± 0.091.

As to QCIKQELICKWIDPEVLSNPKKSCNKTFSTMHELVTHVSVEHVGGP [Q16V], the abundance fitness is -0.302 ± 0.091.

In the case of QCIKQELICKWIDPEQLDNPKKSCNKTFSTMHELVTHVSVEHVGGP [S18D], the abundance fitness is -0.125 ± 0.1.

On to QCIKQELICKWIDPEQLFNPKKSCNKTFSTMHELVTHVSVEHVGGP [S18F], for which the abundance fitness was -0.15 ± 0.1.

Turning to QCIKQELICKWIDPEQLHNPKKSCNKTFSTMHELVTHVSVEHVGGP [S18H], the abundance fitness is -0.389 ± 0.12.

Regarding QCIKQELICKWIDPEQLGNPKKSCNKTFSTMHELVTHVSVEHVGGP [S18G], the abundance fitness is -0.427 ± 0.088.

For the variant QCIKQELICKWIDPEQLKNPKKSCNKTFSTMHELVTHVSVEHVGGP [S18K], the abundance fitness was 0.282 ± 0.11.

QCIKQELICKWIDPEQLANPKKSCNKTFSTMHELVTHVSVEHVGGP [S18A]: the abundance fitness is -0.348 ± 0.092.

Consider QCIKQELICKWIDPEQLINPKKSCNKTFSTMHELVTHVSVEHVGGP [S18I], for which the abundance fitness is -0.409 ± 0.12.

In the case of QCIKQELICKWIDPEQLLNPKKSCNKTFSTMHELVTHVSVEHVGGP [S18L], the abundance fitness was -0.145 ± 0.088.

Take QCIKQELICKWIDPEQLENPKKSCNKTFSTMHELVTHVSVEHVGGP [S18E]: the abundance fitness is -0.394 ± 0.11.

As for QCIKQELICKWIDPEQLMNPKKSCNKTFSTMHELVTHVSVEHVGGP [S18M], the abundance fitness was -0.348 ± 0.099.

As for QCIKQELICKWIDPEQLCNPKKSCNKTFSTMHELVTHVSVEHVGGP [S18C], the abundance fitness is -0.06 ± 0.1.

Regarding QCIKQELICKWIDPRQLSNPKKSCNKTFSTMHELVTHVSVEHVGGP [E15R], the abundance fitness was -0.217 ± 0.085.

In the case of QCIKQELICKWIDPTQLSNPKKSCNKTFSTMHELVTHVSVEHVGGP [E15T], the abundance fitness was -0.31 ± 0.1.

Turning to QCIKQELICKWIDPWQLSNPKKSCNKTFSTMHELVTHVSVEHVGGP [E15W], the abundance fitness was -0.206 ± 0.094.

On to QCIKQELICKWIDPQQLSNPKKSCNKTFSTMHELVTHVSVEHVGGP [E15Q], for which the abundance fitness is -0.406 ± 0.13.

As to QCIKQELICKWIDPSQLSNPKKSCNKTFSTMHELVTHVSVEHVGGP [E15S], the abundance fitness is 0.018 ± 0.088.

On to QCIKQELICKWIDPYQLSNPKKSCNKTFSTMHELVTHVSVEHVGGP [E15Y], for which the abundance fitness is -0.14 ± 0.12.

With QCIKQELICKWIDPPQLSNPKKSCNKTFSTMHELVTHVSVEHVGGP [E15P], the abundance fitness was -0.388 ± 0.11.

As to QCIKQELICKWIDPVQLSNPKKSCNKTFSTMHELVTHVSVEHVGGP [E15V], the abundance fitness is -0.137 ± 0.087.

Turning to QCIKQELICKWIDPEQNSNPKKSCNKTFSTMHELVTHVSVEHVGGP [L17N], the abundance fitness came out at 0.124 ± 0.13.

On to QCIKQELICKWIDPEQYSNPKKSCNKTFSTMHELVTHVSVEHVGGP [L17Y], for which the abundance fitness is -0.564 ± 0.15.

For the variant QCIKQELICKWIDPEQQSNPKKSCNKTFSTMHELVTHVSVEHVGGP [L17Q], the abundance fitness was -0.173 ± 0.1.

As to QCIKQELICKWIDPEQFSNPKKSCNKTFSTMHELVTHVSVEHVGGP [L17F], the abundance fitness was 0.143 ± 0.11.

Regarding QCIKQELICKWIDPEQKSNPKKSCNKTFSTMHELVTHVSVEHVGGP [L17K], the abundance fitness was -0.071 ± 0.1.

On to QCIKQELICKWIDPEQISNPKKSCNKTFSTMHELVTHVSVEHVGGP [L17I], for which the abundance fitness was 0.067 ± 0.14.

Regarding QCIKQELICKWIDPEQVSNPKKSCNKTFSTMHELVTHVSVEHVGGP [L17V], the abundance fitness stood at 0.11 ± 0.087.

Take QCIKQELICKWIDPEQSSNPKKSCNKTFSTMHELVTHVSVEHVGGP [L17S]: the abundance fitness was -0.111 ± 0.09.

In the case of QCIKQELICKWIDPEQDSNPKKSCNKTFSTMHELVTHVSVEHVGGP [L17D], the abundance fitness stood at 0.176 ± 0.12.

Take QCIKQELICKWIDPEQESNPKKSCNKTFSTMHELVTHVSVEHVGGP [L17E]: the abundance fitness came to 0.306 ± 0.093.

As to QCIKQELICKWIDPEQASNPKKSCNKTFSTMHELVTHVSVEHVGGP [L17A], the abundance fitness amounted to 0.084 ± 0.092.

As for QCIKQELICKWIDPEQRSNPKKSCNKTFSTMHELVTHVSVEHVGGP [L17R], the abundance fitness was -0.304 ± 0.086.

As for QCIKQELICKWIDPEQTSNPKKSCNKTFSTMHELVTHVSVEHVGGP [L17T], the abundance fitness worked out at 0.035 ± 0.097.

Turning to QCIKQELICKWIDPEQCSNPKKSCNKTFSTMHELVTHVSVEHVGGP [L17C], the abundance fitness is -0.245 ± 0.12.

With QCIKQELICKWIDPEQPSNPKKSCNKTFSTMHELVTHVSVEHVGGP [L17P], the abundance fitness amounted to 0.101 ± 0.097.

For QCIKQELICKWIDPEQHSNPKKSCNKTFSTMHELVTHVSVEHVGGP [L17H], the abundance fitness was -0.662 ± 0.15.

With QCIKQELICKWIDPEQGSNPKKSCNKTFSTMHELVTHVSVEHVGGP [L17G], the abundance fitness was -0.363 ± 0.086.

As for QCIKQELICKWIDPEQWSNPKKSCNKTFSTMHELVTHVSVEHVGGP [L17W], the abundance fitness was -0.623 ± 0.093.
